The Kd is the concentration at which binding is half-saturated. Higher therefore signals lower affinity. Usually koff stands for the first-order rate constant of dissociation. One may read the kon as the second-order rate constant of association. Low values mean slow association, high ones fast association.

To fix the notation:
B1: Ab3 (antibody, human IgG1, kappa, V domains shown)
VH: QSLEESGGDLVKPGASLTLTCTTSVFDLSSYYWICWVRQAPGKGLEWIACVYATSGSTDYATWAKGRLTISKASSTTVTLQMTSLTAADTATYFCARGGIYGGDGFNLWGPGTLVTVSS
VL: AFELTQTPASVEAAVGGTVTINCQASESISNWLAWYQQKPGQPPKLLIYRASTLTSGVPSRFKGSGSGTEFTLTISDLECADAATYYCQSYDPSIIDGFAFGGGTEVVVKR
B2: Ab2 (antibody, human IgG1, kappa, V domains shown)
VH: QSVEESGGRLVTPGTPLTLTCTVSGFSLSSFNMDWVRQAPGEGLEWIGAVSTGGSAYYAKWAKGRFTISKTSTAVDLKITSPTTEDTATYFCARVDSSGWGYFDLWGQGTLVTVSS
VL: AIEMTQTPFSVSAAVGGTVTINCQASENIYSSLAWYQQKPGQPPKLLIYYASNLASGVSSRFKGSGSGTDFTLTISDLECADAATYYCQSYYFISSTDFNAFGGGTEVVVKR
B3: Ab1H-P1469m/Ab1L (antibody, human IgG1, kappa, name in EU numbering)
heavy: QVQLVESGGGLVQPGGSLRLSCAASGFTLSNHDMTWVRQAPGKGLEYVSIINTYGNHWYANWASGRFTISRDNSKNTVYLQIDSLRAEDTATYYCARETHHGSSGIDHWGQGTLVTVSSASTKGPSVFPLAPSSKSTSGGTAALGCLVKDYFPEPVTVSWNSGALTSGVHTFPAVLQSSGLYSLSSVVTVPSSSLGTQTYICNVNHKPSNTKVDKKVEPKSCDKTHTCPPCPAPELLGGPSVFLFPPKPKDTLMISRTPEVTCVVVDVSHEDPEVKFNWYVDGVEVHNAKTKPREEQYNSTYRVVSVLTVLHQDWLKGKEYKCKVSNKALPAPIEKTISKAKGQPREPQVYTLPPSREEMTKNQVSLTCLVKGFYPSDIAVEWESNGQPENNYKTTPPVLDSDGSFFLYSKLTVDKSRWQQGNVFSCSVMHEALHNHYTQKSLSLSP
light: DIQMTQSPSSVSASVGDRVTITCQASESIYSGLAWYQQKPGQPPKLLIYDHSTLASGVPSRFSGSGSGTEYALTISSLQPEDFATYYCQHADYAHHSDNVFGGGTKVEIKRTVAAPSVFIFPPSDEQLKSGTASVVCLLNNFYPREAKVQWKVDNALQSGNSQESVTEQDSKDSTYSLSSTLTLSKADYEKHKVYACEVTHQGLSSPVTKSFNRGEC
notes: copies: 2 + 2
B4: Ab1H-P1513m/Ab1L (antibody, human IgG1, kappa, name in EU numbering)
heavy: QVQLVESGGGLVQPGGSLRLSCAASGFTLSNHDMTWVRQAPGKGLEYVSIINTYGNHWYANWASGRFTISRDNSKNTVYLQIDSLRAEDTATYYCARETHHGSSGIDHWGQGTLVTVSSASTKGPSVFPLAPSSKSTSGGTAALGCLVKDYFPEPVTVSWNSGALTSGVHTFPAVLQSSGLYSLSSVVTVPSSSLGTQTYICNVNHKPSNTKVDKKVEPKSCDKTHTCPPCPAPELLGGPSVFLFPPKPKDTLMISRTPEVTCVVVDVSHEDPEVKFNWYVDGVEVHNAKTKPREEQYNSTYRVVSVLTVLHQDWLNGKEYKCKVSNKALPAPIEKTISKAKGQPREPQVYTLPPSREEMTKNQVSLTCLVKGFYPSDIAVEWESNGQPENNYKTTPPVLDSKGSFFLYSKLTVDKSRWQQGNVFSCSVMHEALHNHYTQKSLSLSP
light: DIQMTQSPSSVSASVGDRVTITCQASESIYSGLAWYQQKPGQPPKLLIYDHSTLASGVPSRFSGSGSGTEYALTISSLQPEDFATYYCQHADYAHHSDNVFGGGTKVEIKRTVAAPSVFIFPPSDEQLKSGTASVVCLLNNFYPREAKVQWKVDNALQSGNSQESVTEQDSKDSTYSLSSTLTLSKADYEKHKVYACEVTHQGLSSPVTKSFNRGEC
notes: copies: 2 + 2
B5: Ab1H-P1481m/Ab1L (antibody, human IgG1, kappa, name in EU numbering)
heavy: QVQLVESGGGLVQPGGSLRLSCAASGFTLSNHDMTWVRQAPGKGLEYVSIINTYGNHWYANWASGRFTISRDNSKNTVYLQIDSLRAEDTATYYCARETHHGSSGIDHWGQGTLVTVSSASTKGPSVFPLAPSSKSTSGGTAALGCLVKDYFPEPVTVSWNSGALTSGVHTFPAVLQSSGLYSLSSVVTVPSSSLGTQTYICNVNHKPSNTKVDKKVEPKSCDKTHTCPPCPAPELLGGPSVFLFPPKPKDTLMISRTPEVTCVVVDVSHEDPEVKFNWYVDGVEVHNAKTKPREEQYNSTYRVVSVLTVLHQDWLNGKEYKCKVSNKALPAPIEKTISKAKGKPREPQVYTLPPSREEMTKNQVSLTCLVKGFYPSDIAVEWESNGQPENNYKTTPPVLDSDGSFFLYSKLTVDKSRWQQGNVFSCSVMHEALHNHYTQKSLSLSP
light: DIQMTQSPSSVSASVGDRVTITCQASESIYSGLAWYQQKPGQPPKLLIYDHSTLASGVPSRFSGSGSGTEYALTISSLQPEDFATYYCQHADYAHHSDNVFGGGTKVEIKRTVAAPSVFIFPPSDEQLKSGTASVVCLLNNFYPREAKVQWKVDNALQSGNSQESVTEQDSKDSTYSLSSTLTLSKADYEKHKVYACEVTHQGLSSPVTKSFNRGEC
B6: Ab1H-P1514m/Ab1L (antibody, human IgG1, kappa, name in EU numbering)
heavy: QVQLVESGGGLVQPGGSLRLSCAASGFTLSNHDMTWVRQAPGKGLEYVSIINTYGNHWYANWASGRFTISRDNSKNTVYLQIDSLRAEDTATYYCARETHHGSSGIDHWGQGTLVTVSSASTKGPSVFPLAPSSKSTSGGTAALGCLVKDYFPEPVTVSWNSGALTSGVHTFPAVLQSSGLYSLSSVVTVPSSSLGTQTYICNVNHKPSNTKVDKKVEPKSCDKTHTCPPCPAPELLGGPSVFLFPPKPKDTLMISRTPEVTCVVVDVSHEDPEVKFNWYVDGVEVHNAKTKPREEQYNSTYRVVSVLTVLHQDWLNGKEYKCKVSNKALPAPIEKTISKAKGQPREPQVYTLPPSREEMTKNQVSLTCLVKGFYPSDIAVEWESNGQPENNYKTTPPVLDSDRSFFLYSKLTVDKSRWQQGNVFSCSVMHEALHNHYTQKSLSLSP
light: DIQMTQSPSSVSASVGDRVTITCQASESIYSGLAWYQQKPGQPPKLLIYDHSTLASGVPSRFSGSGSGTEYALTISSLQPEDFATYYCQHADYAHHSDNVFGGGTKVEIKRTVAAPSVFIFPPSDEQLKSGTASVVCLLNNFYPREAKVQWKVDNALQSGNSQESVTEQDSKDSTYSLSSTLTLSKADYEKHKVYACEVTHQGLSSPVTKSFNRGEC
notes: copies: 2 + 2
B7: Ab1H-P1483m/Ab1L (antibody, human IgG1, kappa, name in EU numbering)
heavy: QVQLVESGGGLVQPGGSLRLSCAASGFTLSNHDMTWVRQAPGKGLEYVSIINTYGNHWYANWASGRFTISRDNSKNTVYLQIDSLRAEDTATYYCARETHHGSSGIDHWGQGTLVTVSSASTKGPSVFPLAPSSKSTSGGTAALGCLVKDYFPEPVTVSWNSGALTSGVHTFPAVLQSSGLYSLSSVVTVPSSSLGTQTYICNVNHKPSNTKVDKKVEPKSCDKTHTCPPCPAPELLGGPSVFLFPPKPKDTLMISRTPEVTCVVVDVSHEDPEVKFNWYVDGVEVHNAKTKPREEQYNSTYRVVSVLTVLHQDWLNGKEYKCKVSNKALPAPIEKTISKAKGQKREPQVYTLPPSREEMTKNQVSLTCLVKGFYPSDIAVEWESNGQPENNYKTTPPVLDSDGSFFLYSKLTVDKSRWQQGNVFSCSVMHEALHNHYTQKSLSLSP
light: DIQMTQSPSSVSASVGDRVTITCQASESIYSGLAWYQQKPGQPPKLLIYDHSTLASGVPSRFSGSGSGTEYALTISSLQPEDFATYYCQHADYAHHSDNVFGGGTKVEIKRTVAAPSVFIFPPSDEQLKSGTASVVCLLNNFYPREAKVQWKVDNALQSGNSQESVTEQDSKDSTYSLSSTLTLSKADYEKHKVYACEVTHQGLSSPVTKSFNRGEC
B8: Ab1H-P1482m/Ab1L (antibody, human IgG1, kappa, name in EU numbering)
heavy: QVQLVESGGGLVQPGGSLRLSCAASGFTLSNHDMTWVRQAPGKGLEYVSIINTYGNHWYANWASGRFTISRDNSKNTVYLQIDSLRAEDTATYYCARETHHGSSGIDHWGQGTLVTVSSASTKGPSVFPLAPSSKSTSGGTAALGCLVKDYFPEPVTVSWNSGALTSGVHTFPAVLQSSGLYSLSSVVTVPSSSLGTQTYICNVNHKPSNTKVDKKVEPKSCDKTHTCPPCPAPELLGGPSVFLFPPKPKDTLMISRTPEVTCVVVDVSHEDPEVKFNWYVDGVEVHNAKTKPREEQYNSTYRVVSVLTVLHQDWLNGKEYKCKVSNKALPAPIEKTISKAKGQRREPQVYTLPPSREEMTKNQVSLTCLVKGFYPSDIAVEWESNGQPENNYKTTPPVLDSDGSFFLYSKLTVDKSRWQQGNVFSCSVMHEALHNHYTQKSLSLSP
light: DIQMTQSPSSVSASVGDRVTITCQASESIYSGLAWYQQKPGQPPKLLIYDHSTLASGVPSRFSGSGSGTEYALTISSLQPEDFATYYCQHADYAHHSDNVFGGGTKVEIKRTVAAPSVFIFPPSDEQLKSGTASVVCLLNNFYPREAKVQWKVDNALQSGNSQESVTEQDSKDSTYSLSSTLTLSKADYEKHKVYACEVTHQGLSSPVTKSFNRGEC
B9: Ab1H-P1471m/Ab1L (antibody, human IgG1, kappa, name in EU numbering)
heavy: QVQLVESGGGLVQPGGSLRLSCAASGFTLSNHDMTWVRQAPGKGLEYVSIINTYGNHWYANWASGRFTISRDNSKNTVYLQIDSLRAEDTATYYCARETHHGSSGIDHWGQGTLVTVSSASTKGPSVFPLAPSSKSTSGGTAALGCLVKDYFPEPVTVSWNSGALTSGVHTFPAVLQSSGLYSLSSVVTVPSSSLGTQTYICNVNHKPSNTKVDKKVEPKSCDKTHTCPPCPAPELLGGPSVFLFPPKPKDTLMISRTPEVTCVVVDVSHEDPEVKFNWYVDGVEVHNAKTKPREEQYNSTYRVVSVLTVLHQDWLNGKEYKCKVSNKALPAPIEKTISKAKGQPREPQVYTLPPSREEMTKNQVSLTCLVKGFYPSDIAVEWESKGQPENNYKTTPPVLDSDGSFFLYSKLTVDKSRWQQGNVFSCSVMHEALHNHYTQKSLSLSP
light: DIQMTQSPSSVSASVGDRVTITCQASESIYSGLAWYQQKPGQPPKLLIYDHSTLASGVPSRFSGSGSGTEYALTISSLQPEDFATYYCQHADYAHHSDNVFGGGTKVEIKRTVAAPSVFIFPPSDEQLKSGTASVVCLLNNFYPREAKVQWKVDNALQSGNSQESVTEQDSKDSTYSLSSTLTLSKADYEKHKVYACEVTHQGLSSPVTKSFNRGEC
notes: copies: 2 + 2
B10: Ab1H-P1515m/Ab1L (antibody, human IgG1, kappa, name in EU numbering)
heavy: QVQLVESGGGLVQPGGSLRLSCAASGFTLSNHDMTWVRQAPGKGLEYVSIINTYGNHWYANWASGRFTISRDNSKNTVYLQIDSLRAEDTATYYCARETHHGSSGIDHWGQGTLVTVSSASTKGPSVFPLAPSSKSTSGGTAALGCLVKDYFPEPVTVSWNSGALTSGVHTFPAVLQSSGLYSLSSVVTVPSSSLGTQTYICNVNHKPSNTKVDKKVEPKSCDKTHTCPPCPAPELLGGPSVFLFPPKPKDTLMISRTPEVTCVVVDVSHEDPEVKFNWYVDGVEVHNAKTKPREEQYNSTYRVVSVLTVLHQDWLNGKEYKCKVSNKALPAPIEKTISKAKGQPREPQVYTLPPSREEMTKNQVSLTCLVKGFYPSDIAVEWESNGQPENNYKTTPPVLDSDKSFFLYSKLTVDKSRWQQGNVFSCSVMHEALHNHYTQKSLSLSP
light: DIQMTQSPSSVSASVGDRVTITCQASESIYSGLAWYQQKPGQPPKLLIYDHSTLASGVPSRFSGSGSGTEYALTISSLQPEDFATYYCQHADYAHHSDNVFGGGTKVEIKRTVAAPSVFIFPPSDEQLKSGTASVVCLLNNFYPREAKVQWKVDNALQSGNSQESVTEQDSKDSTYSLSSTLTLSKADYEKHKVYACEVTHQGLSSPVTKSFNRGEC
notes: copies: 2 + 2
B11: Ab1H-P1470m/Ab1L (antibody, human IgG1, kappa, name in EU numbering)
heavy: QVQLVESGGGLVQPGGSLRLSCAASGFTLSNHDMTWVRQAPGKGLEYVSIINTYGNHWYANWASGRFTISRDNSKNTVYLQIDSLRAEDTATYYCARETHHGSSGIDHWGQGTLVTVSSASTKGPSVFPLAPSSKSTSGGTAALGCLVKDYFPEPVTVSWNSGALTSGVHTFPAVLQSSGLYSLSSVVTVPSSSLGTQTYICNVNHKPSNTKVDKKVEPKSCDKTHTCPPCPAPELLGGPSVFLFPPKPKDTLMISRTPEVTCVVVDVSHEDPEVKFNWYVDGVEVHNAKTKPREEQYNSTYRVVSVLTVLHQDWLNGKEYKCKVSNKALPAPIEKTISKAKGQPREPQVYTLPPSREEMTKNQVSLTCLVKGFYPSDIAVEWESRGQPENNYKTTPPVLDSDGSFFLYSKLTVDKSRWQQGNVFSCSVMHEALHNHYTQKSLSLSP
light: DIQMTQSPSSVSASVGDRVTITCQASESIYSGLAWYQQKPGQPPKLLIYDHSTLASGVPSRFSGSGSGTEYALTISSLQPEDFATYYCQHADYAHHSDNVFGGGTKVEIKRTVAAPSVFIFPPSDEQLKSGTASVVCLLNNFYPREAKVQWKVDNALQSGNSQESVTEQDSKDSTYSLSSTLTLSKADYEKHKVYACEVTHQGLSSPVTKSFNRGEC
notes: copies: 2 + 2
B12: Ab1H-P1512m/Ab1L (antibody, human IgG1, kappa, name in EU numbering)
heavy: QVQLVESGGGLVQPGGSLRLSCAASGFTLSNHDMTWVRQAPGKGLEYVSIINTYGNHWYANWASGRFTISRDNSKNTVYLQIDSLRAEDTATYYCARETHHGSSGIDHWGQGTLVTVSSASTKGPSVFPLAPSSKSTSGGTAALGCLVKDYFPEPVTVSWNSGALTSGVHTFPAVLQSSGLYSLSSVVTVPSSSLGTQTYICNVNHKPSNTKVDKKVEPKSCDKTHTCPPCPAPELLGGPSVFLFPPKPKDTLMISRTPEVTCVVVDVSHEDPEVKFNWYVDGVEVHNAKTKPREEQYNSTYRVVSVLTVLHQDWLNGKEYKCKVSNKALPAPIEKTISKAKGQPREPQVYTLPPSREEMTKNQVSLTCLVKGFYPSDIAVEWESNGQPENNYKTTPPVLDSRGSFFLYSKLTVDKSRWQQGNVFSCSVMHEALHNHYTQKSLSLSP
light: DIQMTQSPSSVSASVGDRVTITCQASESIYSGLAWYQQKPGQPPKLLIYDHSTLASGVPSRFSGSGSGTEYALTISSLQPEDFATYYCQHADYAHHSDNVFGGGTKVEIKRTVAAPSVFIFPPSDEQLKSGTASVVCLLNNFYPREAKVQWKVDNALQSGNSQESVTEQDSKDSTYSLSSTLTLSKADYEKHKVYACEVTHQGLSSPVTKSFNRGEC
notes: copies: 2 + 2
B13: Ab1H-P1480m/Ab1L (antibody, human IgG1, kappa, name in EU numbering)
heavy: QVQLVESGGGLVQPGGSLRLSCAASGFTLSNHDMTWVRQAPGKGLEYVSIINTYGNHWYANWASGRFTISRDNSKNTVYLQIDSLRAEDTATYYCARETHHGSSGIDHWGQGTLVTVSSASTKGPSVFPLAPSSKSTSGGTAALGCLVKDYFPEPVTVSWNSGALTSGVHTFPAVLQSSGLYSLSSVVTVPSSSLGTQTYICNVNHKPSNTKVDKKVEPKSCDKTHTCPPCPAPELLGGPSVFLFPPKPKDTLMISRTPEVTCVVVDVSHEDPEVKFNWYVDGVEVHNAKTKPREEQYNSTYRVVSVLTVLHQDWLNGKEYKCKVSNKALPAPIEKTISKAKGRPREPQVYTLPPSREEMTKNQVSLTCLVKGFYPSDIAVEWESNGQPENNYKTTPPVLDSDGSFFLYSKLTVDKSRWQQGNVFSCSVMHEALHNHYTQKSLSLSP
light: DIQMTQSPSSVSASVGDRVTITCQASESIYSGLAWYQQKPGQPPKLLIYDHSTLASGVPSRFSGSGSGTEYALTISSLQPEDFATYYCQHADYAHHSDNVFGGGTKVEIKRTVAAPSVFIFPPSDEQLKSGTASVVCLLNNFYPREAKVQWKVDNALQSGNSQESVTEQDSKDSTYSLSSTLTLSKADYEKHKVYACEVTHQGLSSPVTKSFNRGEC
B14: Ab1H-P1653m/Ab1L (antibody, human IgG1, kappa, name in EU numbering)
heavy: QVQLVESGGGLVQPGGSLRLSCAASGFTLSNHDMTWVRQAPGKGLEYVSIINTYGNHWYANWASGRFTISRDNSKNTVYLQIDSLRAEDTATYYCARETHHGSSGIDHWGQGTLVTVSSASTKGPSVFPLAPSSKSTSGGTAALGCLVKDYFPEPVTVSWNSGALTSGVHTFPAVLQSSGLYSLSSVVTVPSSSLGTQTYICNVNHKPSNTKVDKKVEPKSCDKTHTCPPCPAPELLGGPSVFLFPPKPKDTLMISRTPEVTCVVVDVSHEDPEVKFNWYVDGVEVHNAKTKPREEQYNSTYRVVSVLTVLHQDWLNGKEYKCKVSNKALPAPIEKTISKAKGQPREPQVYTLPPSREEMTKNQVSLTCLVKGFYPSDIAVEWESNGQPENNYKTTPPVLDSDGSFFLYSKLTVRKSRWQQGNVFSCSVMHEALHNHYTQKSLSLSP
light: DIQMTQSPSSVSASVGDRVTITCQASESIYSGLAWYQQKPGQPPKLLIYDHSTLASGVPSRFSGSGSGTEYALTISSLQPEDFATYYCQHADYAHHSDNVFGGGTKVEIKRTVAAPSVFIFPPSDEQLKSGTASVVCLLNNFYPREAKVQWKVDNALQSGNSQESVTEQDSKDSTYSLSSTLTLSKADYEKHKVYACEVTHQGLSSPVTKSFNRGEC
notes: copies: 2 + 2

T1 sequence (P01854 other isoform, or with tags, fused parts or gaps): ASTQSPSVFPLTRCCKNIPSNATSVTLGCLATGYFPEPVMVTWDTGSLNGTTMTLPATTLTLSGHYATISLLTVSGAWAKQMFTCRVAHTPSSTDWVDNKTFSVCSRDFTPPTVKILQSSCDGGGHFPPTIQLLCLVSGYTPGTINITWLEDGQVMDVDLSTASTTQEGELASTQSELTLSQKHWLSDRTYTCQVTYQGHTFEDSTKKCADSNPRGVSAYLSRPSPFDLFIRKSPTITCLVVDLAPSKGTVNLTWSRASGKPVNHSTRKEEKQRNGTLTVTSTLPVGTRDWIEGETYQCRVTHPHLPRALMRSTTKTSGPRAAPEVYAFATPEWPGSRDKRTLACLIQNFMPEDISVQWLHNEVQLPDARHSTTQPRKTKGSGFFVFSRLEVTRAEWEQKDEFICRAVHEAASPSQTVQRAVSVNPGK

The first experiment concerns the target T1, human IgE (human, UniProt P01854-1 1-428).
T1 construct: whole IgE; also called hIgE
Nature of the experiment: SPR, IgE on chip, Ab analyte, pH 7.4, 37C. As to the method: (§1) Affinities of Ab2 and Ab3 for human IgE at pH 7.4 and pH 5.8 were evaluated as follows. The binding activity (dissociation constant KD (M)) of anti-hIgE antibodies toward hIgE were evaluated using BIACORE T200 (GE Healthcare). Measurements were carried out using the following two buffers as the running buffers: (1) 1.2 mM CaCl₂/0.05% tween 20, 20 mM ACES, 150 mM NaCl, pH 7.4; and (2) 1.2 mM CaCl₂/0.05% tween 20, 20 mM ACES, 150 mM NaCl, pH 5.8.
(§2) Then, to regenerate the sensor chip, 10 mM glycine-HCl at pH 1.5 was injected. All measurements were carried out at 37° C. Association rate constants ka (1/Ms) and dissociation rate constants kd (1/s) were calculated by analyzing the measurement results by curve-fitting using the BIACORE T200 Evaluation Software (GE Healthcare), and dissociation constants KD (M) were calculated based on those values.
A general note: In SPR one partner is held on a chip, and binding of the other changes the refractive index at the surface.
Molecule B1 returned a dissociation constant (Kd) of 4.9 nM, a koff of 0.0079 s⁻¹ and a kon of 1.6e+06 M⁻¹ s⁻¹.

In turn, B2 displayed a Kd of 1.5 nM, a koff of 0.0045 s⁻¹ and a kon of 2.9e+06 M⁻¹ s⁻¹.

The next experiment addresses T2, soluble human FcγRIIb (human, UniProt P31994 43-217, limits assumed).
T2 construct: soluble His-tagged form; also called hFcγRIIb
T2 sequence (looked up): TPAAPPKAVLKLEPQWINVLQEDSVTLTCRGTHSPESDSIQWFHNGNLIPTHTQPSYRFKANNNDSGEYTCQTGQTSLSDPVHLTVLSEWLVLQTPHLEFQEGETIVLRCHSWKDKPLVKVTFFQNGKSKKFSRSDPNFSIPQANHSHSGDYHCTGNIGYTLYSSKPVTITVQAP
Nature of the experiment: SPR, Ab-IgE complex over captured hFcγRIIb, pH 7.4, 25C. How it is done: Regarding the produced Fc region variant-containing antibodies, binding assays between soluble human FcγRIIb and antigen-antibody complexes were performed using BIACORE T200 (GE Healthcare). Soluble human FcγRIIb (NCBI accession NM_004001.3) was produced in the form of a His-tagged molecule by a method known in the art. An appropriate amount of an anti-His antibody was fixed onto Sensor chip CM5 (GE Healthcare) by the amine coupling method using a His capture kit (GE Healthcare) to capture human FcγRIIb. Next, an antibody-antigen complex and a running buffer (as a reference solution) were injected, and interaction was allowed to take place with the human FcγRIIb captured onto the sensor chip. 20 mM N-(2-Acetamido)-2-aminoethanesulfonic acid, 150 mM NaCl, 1.2 mM CaCl₂, and 0.05% (w/v) Tween 20 at pH 7.4 was used as the running buffer, and the respective buffer was also used to dilute the soluble human FcγRIIb. To regenerate the sensor chip, 10 mM glycine-HCl at pH 1.5 was used. All measurements were carried out at 25° C. Analyses were performed based on binding (RU) calculated from sensorgrams obtained by the measurements, and relative values when the binding amount of Ab1H/Ab1L (original Ab1) was defined as 1.00 are shown. To calculate the parameters, the BIACORE T100 Evaluation Software (GE Healthcare) was used.
For B3, the “BIACORE fold (relative binding, original Ab1=1.00)” value was determined as 1.13 fold.

For the molecule B4, the “BIACORE fold (relative binding, original Ab1=1.00)” value stood at 1.21 fold.

As to B5, the “BIACORE fold (relative binding, original Ab1=1.00)” value was 1.08 fold.

Consider B6, for which the “BIACORE fold (relative binding, original Ab1=1.00)” value came out at 1.2 fold.

Consider B7, for which the “BIACORE fold (relative binding, original Ab1=1.00)” value stood at 1.02 fold.

Take B8: the “BIACORE fold (relative binding, original Ab1=1.00)” value was 1.46 fold.

With B9, the “BIACORE fold (relative binding, original Ab1=1.00)” value is 1.19 fold.

Consider B10, for which the “BIACORE fold (relative binding, original Ab1=1.00)” value was determined as 1.19 fold.

In the case of B11, the “BIACORE fold (relative binding, original Ab1=1.00)” value was 1.19 fold.

Take B12: the “BIACORE fold (relative binding, original Ab1=1.00)” value stood at 1.24 fold.

Consider B13, for which the “BIACORE fold (relative binding, original Ab1=1.00)” value worked out at 1.03 fold.

As for B14, the “BIACORE fold (relative binding, original Ab1=1.00)” value worked out at 0.79 fold.

The next experiment deals with T1, human IgE. Nature of the experiment: SPR, IgE on chip, Ab analyte, pH 5.8, 37C. How it is done:
as §1, §2
Take B1: the Kd is 230 nM, the dissociation rate constant (koff) was 0.033 s⁻¹ and the kon was determined as 140000 M⁻¹ s⁻¹.

B2 showed a dissociation constant (Kd) of 97 nM, a koff of 0.053 s⁻¹ and a kon of 550000 M⁻¹ s⁻¹.

These data come from patent publication US20180258163A1 (Chugai, published 2018).
